The target in series [1] is EnvZ(C)(223-289) (Escherichia coli).
Series [2] deals with the molecule itself. Description: gel filtration (21.6 kDa) and dynamic light scattering (26.5 kDa) against a calculated molecular weight of 17.6 kDa.

EnvZ(C)(290-450) (enzyme) came in with a phosphorylation activity on sub-domain A against that of H6-EnvZ(C)H1 in series [1] of 5%.

B1: EnvZ(C)(290-450) (enzyme)
chain: TGQEMPMEMADLNAVLGEVIAAESGYEREIETALYPGSIEVKMHPLSIKRAVANMVVNAARYGNGWIKVSSGTEPNRAWFQVEDDGPGIAPEQRKHLFQPFVRGDSARTISGTGLGLAIVQRIVDNHNGMLELGTSERGGLSIRAWLPVPVTRAQGTTKEG
With B1, the binding result in series [2] is “no binding”.

Values taken from patent publication US6162627, “Methods of identifying inhibitors of sensor histidine kinases through rational drug design” (University of Medicine and Dentistry of New Jersey, dated 2000).
